The values that follow come from the Human Domainome abundance scans (Beltran et al. 2025).

± gives the uncertainty stated by the source.

This data set is described as follows: abundance fitness (aPCA) (normalised: wild type 0, dead -1); higher = more abundant; growth selection in yeast, the domain comes from the species named. As to conditions: Homo sapiens.
As for “Lipoamide acyltransferase component of branched-chain alpha-keto acid dehydrogenase complex, mitochondrial V177S, P11182”, the abundance fitness was -0.255 ± 0.045. To “Lipoamide acyltransferase component of branched-chain alpha-keto acid dehydrogenase complex, mitochondrial V177T, P11182” belongs -0.401 ± 0.06; to “Lipoamide acyltransferase component of branched-chain alpha-keto acid dehydrogenase complex, mitochondrial V177W, P11182”, -0.975 ± 0.14; to “Lipoamide acyltransferase component of branched-chain alpha-keto acid dehydrogenase complex, mitochondrial V191A, P11182”, -0.52 ± 0.058. “Lipoamide acyltransferase component of branched-chain alpha-keto acid dehydrogenase complex, mitochondrial V191C, P11182” displayed an abundance fitness of -0.267 ± 0.053. “Lipoamide acyltransferase component of branched-chain alpha-keto acid dehydrogenase complex, mitochondrial V191D, P11182” displayed an abundance fitness of -0.522 ± 0.092.

Substance “Lipoamide acyltransferase component of branched-chain alpha-keto acid dehydrogenase complex, mitochondrial V191E, P11182” came in with an abundance fitness of -0.562 ± 0.043. For “Lipoamide acyltransferase component of branched-chain alpha-keto acid dehydrogenase complex, mitochondrial V191F, P11182”, the abundance fitness was -0.456 ± 0.054.

“Lipoamide acyltransferase component of branched-chain alpha-keto acid dehydrogenase complex, mitochondrial V191H, P11182” had an abundance fitness of -0.619 ± 0.12. “Lipoamide acyltransferase component of branched-chain alpha-keto acid dehydrogenase complex, mitochondrial V191K, P11182” registered an abundance fitness of -0.653 ± 0.045. The substance “Lipoamide acyltransferase component of branched-chain alpha-keto acid dehydrogenase complex, mitochondrial V191L, P11182” came in with an abundance fitness of -0.117 ± 0.047. As for “Lipoamide acyltransferase component of branched-chain alpha-keto acid dehydrogenase complex, mitochondrial V191M, P11182”, the figure is -0.075 ± 0.051; as for “Lipoamide acyltransferase component of branched-chain alpha-keto acid dehydrogenase complex, mitochondrial V191N, P11182”, -0.699 ± 0.23; as for “Lipoamide acyltransferase component of branched-chain alpha-keto acid dehydrogenase complex, mitochondrial V191P, P11182”, -0.482 ± 0.044.

In turn, “Lipoamide acyltransferase component of branched-chain alpha-keto acid dehydrogenase complex, mitochondrial V191Q, P11182” yielded an abundance fitness of -0.632 ± 0.061. To “Lipoamide acyltransferase component of branched-chain alpha-keto acid dehydrogenase complex, mitochondrial V191R, P11182” belongs -0.756 ± 0.045; to “Lipoamide acyltransferase component of branched-chain alpha-keto acid dehydrogenase complex, mitochondrial V191S, P11182”, -0.593 ± 0.054; to “Lipoamide acyltransferase component of branched-chain alpha-keto acid dehydrogenase complex, mitochondrial V191T, P11182”, -0.696 ± 0.079. To “Lipoamide acyltransferase component of branched-chain alpha-keto acid dehydrogenase complex, mitochondrial V191W, P11182” belongs -0.899 ± 0.064; to “Lipoamide acyltransferase component of branched-chain alpha-keto acid dehydrogenase complex, mitochondrial V191Y, P11182”, -0.772 ± 0.067. Turning to “Lipoamide acyltransferase component of branched-chain alpha-keto acid dehydrogenase complex, mitochondrial V192A, P11182”, the abundance fitness is -0.009 ± 0.045. As for “Lipoamide acyltransferase component of branched-chain alpha-keto acid dehydrogenase complex, mitochondrial V192C, P11182”, the figure is -0.017 ± 0.055; as for “Lipoamide acyltransferase component of branched-chain alpha-keto acid dehydrogenase complex, mitochondrial V192D, P11182”, -0.159 ± 0.12; as for “Lipoamide acyltransferase component of branched-chain alpha-keto acid dehydrogenase complex, mitochondrial V192E, P11182”, 0.023 ± 0.045.

In turn, “Lipoamide acyltransferase component of branched-chain alpha-keto acid dehydrogenase complex, mitochondrial V192F, P11182” had an abundance fitness of -0.31 ± 0.21.

Turning to “Lipoamide acyltransferase component of branched-chain alpha-keto acid dehydrogenase complex, mitochondrial V192I, P11182”, the abundance fitness was -0.041 ± 0.086. The substance “Lipoamide acyltransferase component of branched-chain alpha-keto acid dehydrogenase complex, mitochondrial V192K, P11182” showed an abundance fitness of 0.062 ± 0.046. The substance “Lipoamide acyltransferase component of branched-chain alpha-keto acid dehydrogenase complex, mitochondrial V192L, P11182” showed an abundance fitness of -0.068 ± 0.044. As for “Lipoamide acyltransferase component of branched-chain alpha-keto acid dehydrogenase complex, mitochondrial V192M, P11182”, the figure is -0.066 ± 0.1.

Take “Lipoamide acyltransferase component of branched-chain alpha-keto acid dehydrogenase complex, mitochondrial V192N, P11182”: the abundance fitness was -0.073 ± 0.062. To “Lipoamide acyltransferase component of branched-chain alpha-keto acid dehydrogenase complex, mitochondrial V192P, P11182” belongs 0.011 ± 0.05; to “Lipoamide acyltransferase component of branched-chain alpha-keto acid dehydrogenase complex, mitochondrial V192Q, P11182”, -0.023 ± 0.046; to “Lipoamide acyltransferase component of branched-chain alpha-keto acid dehydrogenase complex, mitochondrial V192R, P11182”, -0.027 ± 0.038.

“Lipoamide acyltransferase component of branched-chain alpha-keto acid dehydrogenase complex, mitochondrial V192S, P11182” yielded an abundance fitness of -0.041 ± 0.053. “Lipoamide acyltransferase component of branched-chain alpha-keto acid dehydrogenase complex, mitochondrial V192T, P11182”: the abundance fitness came out at 0.046 ± 0.052. Take “Lipoamide acyltransferase component of branched-chain alpha-keto acid dehydrogenase complex, mitochondrial V192Y, P11182”: the abundance fitness is -0.141 ± 0.079. Substance “Lipoamide acyltransferase component of branched-chain alpha-keto acid dehydrogenase complex, mitochondrial Y208A, P11182” showed an abundance fitness of 0.018 ± 0.036. “Lipoamide acyltransferase component of branched-chain alpha-keto acid dehydrogenase complex, mitochondrial Y208C, P11182” showed an abundance fitness of 0.037 ± 0.092. As for “Lipoamide acyltransferase component of branched-chain alpha-keto acid dehydrogenase complex, mitochondrial Y208D, P11182”, the figure is -0.213 ± 0.06; as for “Lipoamide acyltransferase component of branched-chain alpha-keto acid dehydrogenase complex, mitochondrial Y208E, P11182”, -0.032 ± 0.041. In turn, “Lipoamide acyltransferase component of branched-chain alpha-keto acid dehydrogenase complex, mitochondrial Y208F, P11182” had an abundance fitness of -0.061 ± 0.084.

For “Lipoamide acyltransferase component of branched-chain alpha-keto acid dehydrogenase complex, mitochondrial Y208G, P11182”, the abundance fitness was -0.172 ± 0.036.

Substance “Lipoamide acyltransferase component of branched-chain alpha-keto acid dehydrogenase complex, mitochondrial Y208H, P11182” displayed an abundance fitness of -0.075 ± 0.097.

For the substance “Lipoamide acyltransferase component of branched-chain alpha-keto acid dehydrogenase complex, mitochondrial Y208I, P11182”, the abundance fitness was -0.072 ± 0.063.

For the substance “Lipoamide acyltransferase component of branched-chain alpha-keto acid dehydrogenase complex, mitochondrial Y208K, P11182”, the abundance fitness was 0.051 ± 0.06.

“Lipoamide acyltransferase component of branched-chain alpha-keto acid dehydrogenase complex, mitochondrial Y208L, P11182” displayed an abundance fitness of -0.032 ± 0.047.
